Measurements reported in the supplement of paper PMC12783771.
± gives the standard deviation of the averaged measurements.

B1: library; numbered along this chain (parent)
chain: MNIQIGELAKRTACPVVTIRFYEQEGLLPPPGRSRGNFRLYGEEHVERLQFIRHCRSLDMPLSDVRTLLSYRKRPDQDCGEVNMLLDEHIRQVESRIGALLELKHHLVELREACSGARPAQSCGILQGLSDCVCDTRGTTAHPSD

Assays:
[1] = variants of: B1; test: sfGFP reporter fluorescence (15 h) (µM FITC); higher = higher leak; conditions: library round: Round 1; ligand: none
Experimental: (§1)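 Cell-free biosensing: 1 µL Echo-assembled CFE reactions with linear PbrR variant templates (5 nM) and pPbrR-sfGFP reporter, with 1 µM Pb, 30 µM Zn or no ligand; endpoint sfGFP fluorescence after 15 h at 30 °C calibrated as µM FITC. Round 1 ML-predicted PbrR mutants; 3 biological replicates.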

[2] = variants of: B1; test: sfGFP reporter fluorescence (15 h) (µM FITC); higher = stronger transcriptional activation; conditions: library round: Round 1
Experimental: as §1

Row | Variant | sfGFP reporter fluorescence [1] | sfGFP reporter fluorescence ([2]; ligand: 1 µM Pb) | sfGFP reporter fluorescence ([2]; ligand: 30 µM Zn)
1 | P61N I90L K104G | 0.0641 ± 0.0019 | 0.0616 ± 0.0054 | 0.119 ± 0.012
2 | P61N D64T D131C | 0.139 ± 0.011 | 0.315 ± 0.076 | 1.1 ± 0.12
3 | P61N P143L | 0.0754 ± 0.0012 | 0.151 ± 0.0086 | 0.804 ± 0.13
4 | D64L K104V L107R | 0.0627 ± 0.0017 | 0.0614 ± 0.0042 | 0.0593 ± 0.0044
5 | P61T I97N K104V | 0.0652 ± 0.0013 | 0.0689 ± 0.0055 | 0.169 ± 0.017
6 | M60L P61D D64K | 0.237 ± 0.022 | 0.609 ± 0.14 | 1.82 ± 0.074
7 | P61N D64K K104V L107C G128I | 0.427 ± 0.0081 | 0.961 ± 0.14 | 1.77 ± 0.27
8 | P61N D64K K104V L107C G128M | 0.854 ± 0.022 | 1.37 ± 0.39 | 2.24 ± 0.098
9 | D64S E109H | 0.0794 ± 0.0043 | 0.193 ± 0.0059 | 1 ± 0.12
10 | D64K K104E | 0.0882 ± 0.0047 | 0.31 ± 0.058 | 1.65 ± 0.039
11 | P61L L62I | 0.063 ± 0.00064 | 0.063 ± 0.0019 | 0.0771 ± 0.0011
12 | P61N E94V | 0.07452 ± 0.00056 | 0.145 ± 0.009 | 0.747 ± 0.049
13 | P61N E94A | 0.0757 ± 0.0021 | 0.15 ± 0.0094 | 0.977 ± 0.065
14 | P61N E94C | 0.0858 ± 0.0022 | 0.186 ± 0.015 | 0.781 ± 0.13
15 | P61N D131A P143W | 0.0886 ± 0.0011 | 0.134 ± 0.023 | 0.59 ± 0.051
16 | M60L D64K K104V L107C G128I | 1.95 ± 0.25 | 2.02 ± 0.3 | 2.61 ± 0.17
17 | R20W R111L | 0.06866 ± 0.00056 | 0.0663 ± 0.0045 | 0.0727 ± 0.0011
18 | R39F V46C | 0.065 ± 0.0013 | 0.0632 ± 0.0031 | 0.0655 ± 0.0018
19 | P61A L107C G128M | 1.26 ± 0.063 | 1.47 ± 0.35 | 2.25 ± 0.16
20 | D64A K104C | 0.115 ± 0.002 | 0.342 ± 0.031 | 1.25 ± 0.076
21 | N83S P143W | 0.0614 ± 0.0019 | 0.102 ± 0.012 | 0.556 ± 0.027
22 | E43C K104V | 0.065 ± 0.0013 | 0.0922 ± 0.0039 | 0.162 ± 0.011
23 | D64A D135R | 0.0876 ± 0.00097 | 0.18 ± 0.034 | 1.55 ± 0.021

Row | Variant | sfGFP reporter fluorescence [1] | sfGFP reporter fluorescence ([2]; ligand: 1 µM Pb) | sfGFP reporter fluorescence ([2]; ligand: 30 µM Zn)
24 | N83S D131A D135A | 0.0661 ± 0.0022 | 0.082 ± 0.01 | 0.275 ± 0.028
25 | D64K I97S | 0.0966 ± 0.0019 | 0.216 ± 0.016 | 1.09 ± 0.074
26 | D64K I97A | 0.2087 ± 0.002 | 0.581 ± 0.17 | 2.21 ± 0.066
27 | N83S E94D K104A | 0.05986 ± 0.00042 | 0.0734 ± 0.0052 | 0.422 ± 0.014
28 | I3G K104V | 0.0618 ± 0.0017 | 0.06841 ± 0.00056 | 0.0899 ± 0.0043
29 | L58F P61N | 0.0663 ± 0.0015 | 0.0952 ± 0.0084 | 0.219 ± 0.02
30 | P61N D64A | 0.0855 ± 0.0012 | 0.183 ± 0.013 | 1.07 ± 0.098
31 | P61N D64T | 0.345 ± 0.02 | 1.06 ± 0.11 | 3.56 ± 0.13
32 | P30A V46R | 0.0618 ± 0.0011 | 0.0716 ± 0.0014 | 0.298 ± 0.024
33 | N83M D131A | 0.0614 ± 0.0015 | 0.0845 ± 0.004 | 0.065 ± 0.0015
34 | K10A V46T C134T | 0.0627 ± 0.0013 | 0.0699 ± 0.0061 | 0.226 ± 0.021
35 | N83R L107H | 0.0594 ± 0.00064 | 0.0632 ± 0.0012 | 0.0662 ± 0.0035
36 | D64K D131A | 0.131 ± 0.0097 | 0.37 ± 0.032 | 1.76 ± 0.11
37 | D64K D131L | 0.176 ± 0.017 | 0.513 ± 0.098 | 1.89 ± 0.093
38 | D64K D131C | 0.0864 ± 0.0047 | 0.282 ± 0.026 | 0.929 ± 0.032
39 | D64T D135R | 0.137 ± 0.008 | 0.29 ± 0.041 | 1.76 ± 0.28
40 | D64T D135A | 0.13 ± 0.0033 | 0.23 ± 0.0095 | 1.63 ± 0.1
41 | D64K I90C K104V | 0.0914 ± 0.0024 | 0.341 ± 0.073 | 0.959 ± 0.086
42 | D64T R111A | 0.173 ± 0.0098 | 0.246 ± 0.078 | 2.17 ± 0.2
43 | D64T R111F | 0.09114 ± 0.00056 | 0.181 ± 0.022 | 1.71 ± 0.025
44 | P30A K104V | 0.0666 ± 0.0032 | 0.115 ± 0.011 | 0.583 ± 0.05
45 | D64K D135Y | 0.149 ± 0.014 | 0.386 ± 0.028 | 1.09 ± 0.15
46 | D64I R111L | 0.0903 ± 0.0015 | 0.254 ± 0.032 | 1.39 ± 0.12

Row | Variant | sfGFP reporter fluorescence [1] | sfGFP reporter fluorescence ([2]; ligand: 1 µM Pb) | sfGFP reporter fluorescence ([2]; ligand: 30 µM Zn)
47 | M60F P61N D64K | 0.624 ± 0.057 | 1.61 ± 0.059 | 1.82 ± 0.16
48 | M60L D64K L107C E109L G128I D131T | 2.84 ± 0.3 | 2.23 ± 0.17 | 2.37 ± 0.23
49 | P61N D64K D131C | 0.119 ± 0.0056 | 0.297 ± 0.065 | 0.868 ± 0.068
50 | P61D D64M R111L | 0.177 ± 0.015 | 0.323 ± 0.09 | 1.43 ± 0.099
51 | P61D D64K L107C G128M | 1.99 ± 0.49 | 2.06 ± 0.23 | 2.38 ± 0.037
52 | N83I H89C | 0.0654 ± 0.0027 | 0.0645 ± 0.0035 | 0.0687 ± 0.0029
53 | M60L P61N D64K L107C G128M | 2.5 ± 0.028 | 2.54 ± 0.22 | 2.51 ± 0.45
54 | C79F G128M | 0.0586 ± 0.0017 | 0.0606 ± 0.0011 | 0.0597 ± 0.00073
55 | N83S E112L | 0.0612 ± 0.0034 | 0.0759 ± 0.0016 | 0.152 ± 0.006
56 | D64T D131C | 0.143 ± 0.0074 | 0.359 ± 0.033 | 1.51 ± 0.07
57 | N83S K104V | 0.064 ± 0.0016 | 0.121 ± 0.0056 | 0.405 ± 0.015
58 | P61N E112V | 0.0641 ± 0.0026 | 0.0906 ± 0.0036 | 0.387 ± 0.058
59 | D64K N83T D131S | 0.0698 ± 0.0016 | 0.29 ± 0.022 | 1.03 ± 0.022
60 | V16C V46C | 0.0646 ± 0.0017 | 0.066 ± 0.0025 | 0.0632 ± 0.0019
61 | V16C V46Y | 0.0651 ± 0.0018 | 0.07452 ± 0.00021 | 0.0793 ± 0.0053
62 | P61N D64T E112I | 0.0771 ± 0.0039 | 0.153 ± 0.018 | 0.942 ± 0.03
63 | P61E D64K D131C | 0.108 ± 0.0035 | 0.243 ± 0.036 | 0.676 ± 0.084
64 | P61S G128I D131C | 0.12 ± 0.0019 | 0.286 ± 0.053 | 1.25 ± 0.2
65 | M60L D135A | 0.0914 ± 0.0019 | 0.258 ± 0.02 | 1.4 ± 0.16
66 | D64I D135T | 0.164 ± 0.02 | 0.514 ± 0.04 | 1.63 ± 0.29
67 | D64G N83S D135A | 0.0656 ± 0.00097 | 0.0915 ± 0.002 | 0.292 ± 0.0096
68 | M60L D64K D131C | 0.344 ± 0.036 | 0.896 ± 0.29 | 2.2 ± 0.15
69 | P29L | 0.0608 ± 0.0015 | 0.0704 ± 0.0041 | 0.213 ± 0.0041

Row | Variant | sfGFP reporter fluorescence [1] | sfGFP reporter fluorescence ([2]; ligand: 1 µM Pb) | sfGFP reporter fluorescence ([2]; ligand: 30 µM Zn)
70 | G32S C55M | 0.0668 ± 0.0018 | 0.0712 ± 0.0065 | 0.101 ± 0.0013
71 | D64T E112I D135A | 0.08637 ± 0.00056 | 0.197 ± 0.029 | 1.56 ± 0.079
72 | D64K E112F | 0.06988 ± 0.00056 | 0.145 ± 0.0047 | 0.802 ± 0.055
73 | D64T G128I D135A | 0.4487 ± 0.003 | 0.801 ± 0.052 | 2.35 ± 0.3
74 | D64T N83T R111I | 0.0783 ± 0.0017 | 0.156 ± 0.014 | 1.12 ± 0.13
75 | E43M G128I | 0.077 ± 0.0028 | 0.206 ± 0.025 | 1.23 ± 0.086
76 | D64T E88A C134E | 0.204 ± 0.031 | 0.238 ± 0.062 | 1.65 ± 0.15
77 | L58F M60L P61N | 0.091 ± 0.002 | 0.191 ± 0.051 | 0.61 ± 0.095
78 | D64K C114F | 0.0621 ± 0.0032 | 0.0613 ± 0.0011 | 0.0596 ± 0.0016
79 | D64K C114I | 0.05986 ± 0.00056 | 0.0594 ± 0.0011 | 0.0599 ± 0.0022
80 | P61D D64K | 0.168 ± 0.0064 | 0.454 ± 0.038 | 1.44 ± 0.17
81 | R33M Q127T | 0.0635 ± 0.0027 | 0.0614 ± 0.0047 | 0.0645 ± 0.0022
82 | P61N R96A | 0.0665 ± 0.00092 | 0.0876 ± 0.0059 | 0.238 ± 0.024
83 | N83T C134M | 0.05754 ± 0.00037 | 0.0707 ± 0.0046 | 0.19 ± 0.022
84 | N83T C134A | 0.0602 ± 0.0013 | 0.0716 ± 0.0016 | 0.162 ± 0.014
85 | N83T C134L | 0.0568 ± 0.0011 | 0.0739 ± 0.003 | 0.159 ± 0.025
86 | N83T C134V | 0.0588 ± 0.0022 | 0.0731 ± 0.0054 | 0.168 ± 0.016
87 | G36K P61N | 0.0721 ± 0.0043 | 0.112 ± 0.0096 | 0.588 ± 0.075
88 | P61L D64K | 0.06157 ± 0.00037 | 0.0655 ± 0.0074 | 0.06389 ± 0.00056
89 | E25V R111M | 0.063 ± 0.0024 | 0.0654 ± 0.0053 | 0.152 ± 0.0061
